# PMC5686067
# What was measured:
# [1] = biological target: sNlpI (soluble NlpI without its lipoprotein signal peptide) (E. coli) (UniProt P0AFB1); test: SEC-MALS; ENrich SEC 650 column, 20 mM Tris-HCl pH 7.5, 200 mM NaCl, 2 mM DTT, 0.02% NaN3, 240-360 µg protein injected
# [2] = biological target: sNlpI (soluble NlpI without its lipoprotein signal peptide) (E. coli) (UniProt P0AFB1); test: AUC; sedimentation velocity, absorbance optics, 20 mM Tris-HCl pH 8.0, 100 mM NaCl, 2 mM DTT, 20 °C, c(s) model in Sedfit
# [3] = biological target: sMepS-6×His-C (soluble MepS without its lipoprotein signal peptide, C-terminal His-tag) (E. coli) (UniProt P0AFV4); test: ITC; iTC200, 20 °C, 20 mM HEPES pH 7.5, 300 mM NaCl, 2 mM 2-mercaptoethanol; 23 µM sMepS or Prc in the cell, 230 µM sNlpI (alone or with equimolar Prc) in the syringe; one binding site model
# Chain of sMepS-6×His-C (soluble MepS without its lipoprotein signal peptide, C-terminal His-tag) (E. coli) (P0AFV4 28-188 limits assumed): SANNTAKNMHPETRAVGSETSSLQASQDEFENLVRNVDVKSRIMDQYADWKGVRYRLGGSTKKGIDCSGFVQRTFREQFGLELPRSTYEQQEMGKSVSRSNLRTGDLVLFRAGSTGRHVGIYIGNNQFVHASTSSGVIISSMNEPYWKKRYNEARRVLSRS
# [4] = biological target: Prc (full-length, C-terminal His-tag) (E. coli) (UniProt P23865)
# Chain of Prc (full-length, C-terminal His-tag) (E. coli) (P23865 23-682 limits assumed): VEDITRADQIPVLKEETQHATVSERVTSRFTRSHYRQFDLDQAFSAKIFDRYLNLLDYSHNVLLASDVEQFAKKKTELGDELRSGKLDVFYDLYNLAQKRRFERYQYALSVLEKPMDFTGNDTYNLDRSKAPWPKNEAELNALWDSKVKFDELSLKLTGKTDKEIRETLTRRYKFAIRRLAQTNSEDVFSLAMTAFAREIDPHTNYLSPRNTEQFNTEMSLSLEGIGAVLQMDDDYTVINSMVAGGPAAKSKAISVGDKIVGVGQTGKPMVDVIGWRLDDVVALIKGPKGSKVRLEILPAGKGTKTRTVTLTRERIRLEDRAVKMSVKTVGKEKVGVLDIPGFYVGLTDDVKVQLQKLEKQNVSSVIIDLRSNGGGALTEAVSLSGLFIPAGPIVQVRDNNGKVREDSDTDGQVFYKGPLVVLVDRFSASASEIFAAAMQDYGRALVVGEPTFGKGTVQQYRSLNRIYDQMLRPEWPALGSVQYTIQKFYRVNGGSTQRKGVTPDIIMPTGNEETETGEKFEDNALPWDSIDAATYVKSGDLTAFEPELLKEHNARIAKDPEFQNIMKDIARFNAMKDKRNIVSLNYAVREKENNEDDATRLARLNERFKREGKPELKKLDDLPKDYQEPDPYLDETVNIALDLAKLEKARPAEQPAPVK
# Chain of sNlpI (soluble NlpI without its lipoprotein signal peptide) (E. coli) (P0AFB1 20-294): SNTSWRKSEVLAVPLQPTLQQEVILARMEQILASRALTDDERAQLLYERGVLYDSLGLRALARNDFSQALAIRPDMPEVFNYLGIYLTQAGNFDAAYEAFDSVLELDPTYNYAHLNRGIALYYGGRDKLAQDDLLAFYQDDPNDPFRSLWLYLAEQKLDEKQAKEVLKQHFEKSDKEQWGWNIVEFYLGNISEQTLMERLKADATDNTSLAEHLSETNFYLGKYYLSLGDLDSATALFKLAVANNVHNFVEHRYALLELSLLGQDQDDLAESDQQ
substance,measurement,setting,value
"Prc (full-length, C-terminal His-tag) (from UniProt P23865 23-682) (enzyme)",stoichiometry N (Prc per sNlpI (printed 2:2)),[1],1
same,stoichiometry N (Prc per sNlpI (printed 2:2)),[2],1
sNlpI-Prc complex (from UniProt P0AFB1 20-294; P23865 23-682),Kd,[3],2090 nM
sNlpI-QM (D113A/E117A/D120/E124A quadruple mutant) (from UniProt P0AFB1 20-294) (natural protein),specific degradation activity of Prc against MepS with sNlpI-QM (nmol min^−1 per mg),[4],0.98
